We go through 5 substances from PMC13186983.

Test [1] deals with T1, Rpt3 (ATPase subunit of the yeast 26S proteasome) (S. cerevisiae) (UniProt P33298).
T1 sequence: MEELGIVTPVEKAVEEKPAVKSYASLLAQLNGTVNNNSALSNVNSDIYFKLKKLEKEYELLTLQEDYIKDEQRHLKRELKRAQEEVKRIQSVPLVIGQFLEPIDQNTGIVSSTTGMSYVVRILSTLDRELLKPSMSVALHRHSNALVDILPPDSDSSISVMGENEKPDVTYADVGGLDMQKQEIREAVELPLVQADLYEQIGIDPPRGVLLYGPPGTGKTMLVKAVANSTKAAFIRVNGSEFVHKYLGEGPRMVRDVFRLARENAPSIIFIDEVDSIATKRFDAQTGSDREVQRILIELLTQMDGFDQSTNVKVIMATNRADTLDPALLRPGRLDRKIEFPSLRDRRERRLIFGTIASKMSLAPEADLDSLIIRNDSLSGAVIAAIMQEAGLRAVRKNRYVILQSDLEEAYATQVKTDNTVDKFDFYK

Test [2] deals with YA4-mutant 26S proteasome, reconstituted, LD655 acceptor-labeled on Rpt1, biotinylated core (S. cerevisiae | yeast) (UniProt P33299).
The target of test [3] is YA6-mutant 26S proteasome, reconstituted, LD655 acceptor-labeled on Rpt1, biotinylated core (S. cerevisiae | yeast) (UniProt P33299).
The target in test [4] is wild-type 26S proteasome, reconstituted, LD655 acceptor-labeled on Rpt1, biotinylated core (S. cerevisiae | yeast) (UniProt P33299).
In test [5] the target is T1, Rpt3 (ATPase subunit of the yeast 26S proteasome) (S. cerevisiae). This is another data set of the same source.
Test [6] concerns the target YA4-mutant 26S proteasome, reconstituted, LD655 acceptor-labeled on Rpt1, biotinylated core (S. cerevisiae | yeast) (UniProt P33299). The source holds these as a separate data set.
The target of test [7] is YA6-mutant 26S proteasome, reconstituted, LD655 acceptor-labeled on Rpt1, biotinylated core (S. cerevisiae | yeast) (UniProt P33299). The source holds these as a separate data set.
Test [8] concerns the target wild-type 26S proteasome, reconstituted, LD655 acceptor-labeled on Rpt1, biotinylated core (S. cerevisiae | yeast) (UniProt P33299). This is another data set of the same source.

In the case of “Rpt6 E140A (from UniProt Q01939 1-405) (natural protein)”, in test [1], the basal ATPase rate of the reconstituted proteasome with Rpt6 E140A (NADH-coupled assay) stood at 108 min⁻¹. In test [1], “Rpt6 K141A (from UniProt Q01939 1-405) (natural protein)” came in with a basal ATPase rate of the reconstituted proteasome with Rpt6 K141A (NADH-coupled assay) of 87 min⁻¹. Take “ubiquitinated titin I27^V15P substrate, LD555 donor-labeled (from UniProt P0CG63 1-76)”: the combined time constant for substrate binding, tail insertion and engagement; bulk stopped-flow FRET, Cy3-labeled proteasome with oPA, 2 µM Cy5-labeled substrate, 25 °C was 14.3 s in test [2], 18 s in test [3] and 6.8 s in test [4]. “Rpt6 with the pore-1 loop Tyr to Ala mutation (YA6) (from UniProt Q01939 1-405) (natural protein)” showed a basal ATPase rate of the reconstituted YA6 proteasome (NADH-coupled assay) in test [5] of 101 min⁻¹. With “ubiquitinated titin I27 substrate, LD555 donor-labeled (from UniProt P0CG63 1-76)”, the frequency of terminal release of titin I27 during the unfolding dwell, single-molecule FRET in test [6] was 37.5%; in test [7] it was 33.3%; in test [8] it was 18.1%.
